Experimental findings from the DeepSol protein solubility set are described below.

The nature of the series: soluble on expression in E. coli; label from the status in PepcDB or PDB records.
On to “MVYFYESKPTEYSTPYQIVMGKDKFENDLLIKWSYRELNYVWFHADKYSSGHVYLKLRPNEKTIDDIPQEVICDCLQLCKSESIQGNKMPQCTILITPWHNLRKNRYMNPGEVSFKSLRQCRKMECGARDNKILNRLAKTRVELFNNVEATLNEAKKTKNGDFFVNYIESNRSNLIEEEKLRKVAKKNQKKKNKQSKDEVTDDMQLEV”, for which the “soluble on expression in E. coli” value is listed as “not soluble”. Turning to “MVYYIYHSAFVIEVEKSILIFDFYKFPSNKKKEKEEFFNRFIKRIDKKVYIFSTHSHSDHFNKEILTWLEMNENIKYILSDDIRIYKHKNFYFTKEGDSFELDNLKISTFGSTDLGSSFYVNTENKNIFHSGDLHFWHWEDDTPEEEKTMYDAYMVQLEKIKKLDRIDIAFVPVDPRLGVNTLEGVELFYKILKPKIIIPMHFSDDYSQMKNFIEKFKYNDDVKIIEIKDSMEKVLELEHHHHHH”, the “soluble on expression in E. coli” value was “not soluble”. For the sequence “MWKIELSDWTDDEFKHIVDFFTNQNILQPLETRRVRYLEMLLFNRSFMIFFPNIIDNHPELFMPCKARPNPPDVPIAVRVFTFEDRKMVMRSELFKAINMKYPNRKPIEYNDVNGFLYAMELKDVFKNFGDLWHDIDFLNTPINRTNQKAVPIITSTGDFCIPGFRAFSEIFYLMSLIMRVFQKVKINSMHVLDDYIKILVSQLEPFLKSQCFITTDAFQKIEQEMCNYWKKFENIPVKDIRDVKRFTLNDLKKELKYLGITEAFPDVLVYADLAFPKLLESVSQNKLETIDMFEAVAECTYCCLLDKYLELVQVWFPQFGSHKMFCSILPPDPVDIFLGVSSSHKDLRRYIKGEDKENMKVKDTSNPQVMKNQRENPKSISKPEGNNSDTPTESGNSSSSKVESSMANCTDCSGVRKEMKTVQNVLKDVQTQLTTMKHKSEKFEKNMTGSVERSKKAEQRLQEEKLDHVKIQVEAKKKLELKLEEVETWKKQVSALWNCKSDHEALNTKLSKCVEKGKKLKEINEKVSNSRDQLSTKVFELKLQLNRELETAETLKNERKDSAKLRNEVNQLKDQLEREREIAYGLQEEASKLRVGTGKDVKRQILESENAQLRQEKQRREMEKSSLLETKMILSRQNEEQHKLIQSLMDQNHTEEGPSNHEDENGSYRKVLWKHQKIKDLYRKGEQQREAEEMVNKLISLNQHPEVQHISFLELESFKKQISDYLHTVEKNIQKIKRNDDFTNLEPLPEPPKMSDKFMRLYWNEMNKQPSTSDLPSAELDDTDQL”, the “soluble on expression in E. coli” value is on record as “not soluble”. The result for “MWKLQSPHSCVPMLVWDCSLHPPSQYCSPLFETAVAENINRLSSHCIKKKSIQRGEKMKKILKLLSCIVVLTIAGCLNQPPPSTLALWEKPGADKAMTQQALTKCGWKPVYASPDDMNSYASEFASVYECMKKAGFRYKLQDSKGIYFSPPAKSSSFLSNLMVAGYQQFMENESFGVSNSTKHERELMLRIEKEKKRQKTKKSLQR” reads “not soluble”.

“MWKTYTRYQAVYKKAQWPLTLYFDGECPLCAREIKVLRARAAADRLLFVDISDDAFDASLLGLTLPQMESSLHARFDDGTWVTGLDATLWSWRAAGLGKWVAPLSWPILRPLFTVLYRLFCRFRPHLAWLPHPDGGRRCSKGSCTVAESVVMKSEASAEKKIS”: the “soluble on expression in E. coli” value is “not soluble”.

Regarding “MWQQAIGDALGITARNLKKFGDRFPHVSDGSNKYVLNDNTDWTDGFWSGILWLCYEYTGDEQYREGAVRTVASFRERLDRFENLDHHDIGFLYSLSAKAQWIVEKDESARKLALDAADVLMRRWRADAGIIQAWGPKGDPENGGRIIIDCLLNLPLLLWAGEQTGDPEYRRVAEAHALKSRRFLVRGDDSSYHTFYFDPENGNAIRGGTHQGNTDGSTWTRGQAWGIYGFALNSRYLGNADLLETAKRMARHFLARVPEDGVVYWDFEVPQEPSSYRDSSASAITACGLLEIASQLDESDPERQRFIDAAKTTVTALRDGYAERDDGEAEGFIRRGSYHVRGGISPDDYTIWGDYYYLEALLRLERGVTGYWYERGR”, the “soluble on expression in E. coli” value is “soluble”. “MYAIAEDTLPARVLKELLLYRRRYPEHRQSASEADEIRRIEQVQLPRIAAFIEAGEPIEFVLPAFPAKSPNPGKVLDSRPDMAERLSLSFLNHLCQRIQLFYAPGAKITVCSDGRVFGDLVRIGDAHISAYQDALRLMIEEIGATHIGVFNLEDVRAFEAQRDNHEQLRQLLIGGYAEPLESIRETLLASEEGLLLYRAITRFLYEDGLTPDYQGSKTALQRDAKERAYGVIQRSWAWGALLADQFPRAIRLSIHPQPADSLKFGIHMMPTRDDWLTPWHGVAVNTEDRFVLMKRSEVLELGGELVQINGQPSHYRLPARAARRAAVALEHHHHHH”: the “soluble on expression in E. coli” value was “not soluble”. With “MYAKANNRTVLSFSEQQIIDCGNFTSPCQENILSHEFIKKNGVVTEADYPYVGKENEKCKYDENKIKLWPTNMLLVGNLPETLLKLFIKEHGPGYFRMKAPPSFFNYKTGIYSPTQEECGKATDARSLTIVGYGIEGGQNYWIVKGSFGT” the entry was “not soluble”; with “MYDFVIIGGGIIGMSTAMQLIDVYPDARIALLEKESAPACHQTGHNSGVIHAGVYYTPGSLKAQFCLAGNRATKAFCDQNGIRYDNCGKMLVATSDLEMERMRALWERTAANGIEREWLNADELREREPNITGLGGIFVPSSGIVSYRDVTAAMAKIFQSRGGEIIYNAEVSGLNEHKNGVVIRTRQGGEYEASTLISCSGLMADRLVKMLGLEPGFIICPFRGEYFRLAPEHNQIVNHLIYPIPDPAMPFLGVHLTRMIDGSVTVGPNAVLAFKREGYRKRDFSFSDTLEILGSSGIRRVLQNHLRSGLGEMKNSLCKSGYLRLVQKYCPRLSLSDLQPWPAGVRAQAVSPDGKLIDDFLFVTTPRTIHTCNAPSPAATSAIPIGAHIVSKVQTLLASQSNPGRTLRAARSVDALHAAFNQ”, “not soluble”.

With “MYFIGCGYNAFPVGSEYADFPHMDDKHKDREIRKFRYIIHAEQNALTFRCQDIKPEEHSMIFVTKCPCDECVPLIKGAGIKQIYAGDVDVGKKKADISYMKFGELEGVRKFTWQLNPSEAYSLDPNEPERREKHLSIKRSH”, the “soluble on expression in E. coli” value was “not soluble”. The result for “MYFLTSSLPTTLMNVALTSWARAFAINVFPQPGGPYKRTPFGGSIPTSSKSSGCLRGSSMASLNSCSCFFKPPISLYVTFGLSMTSNPSTVGSLDVGSISTTAIVLLEHHHHHH” reads “not soluble”; that for “MYFPIVALIGRYQDTGLDAPLTALAQMLTQAGRRVLVEAETARNAGVSGYPVADWDEIGRTATLAVVMGGDGTVLGAARHLAPYGVPLIGINHGRLGFITDIPLQDAHDALGRVLEGNYQAEDRMLLQGGVWRGEQQMYSASAVNDVVLNRAGRGGMIEVRVELDGAFMYTQRADGLIIATPTGSTAYSLSANGPILHPGMNAMVLVPVAPQTLSNRPIVIPDSGVLNMTLTAMGRVEIGASVHFDMQTWSDLQPGDRITVQRAPHIIRFVHPEGYSFFSTLRRKLHWNLMPQATDNLELEHHHHHH”, “not soluble”.

As to “MYFVDRTAVVLKPTARFLEWLKSTDENMPDLTIEQLRANCSVFLVPQFDEPEAVVSYFDERYRQIFEAELAGWDIDKDKWPQDMGLKAFWEFFDIEIHDIVLNMEEAELNITPVFDNMM”, the “soluble on expression in E. coli” value is “soluble”.

Take “MYHSLFESLCMVPDPRIERKKIYPLDFLLLIVFLSTLSGNTSWYEIEDYAEEYEEELKSLYEMLTGHQLMHTMPSHDTLNRSISLLDVEAFEGAYKRWIEGFISATSGKHICIDGKTMRGVKKLSFDTQSHVVSAFSPQDMCSLAQLYIDRKTNEIPAIHQLLDLLDLNGAVVSIDAIGTQTAIAEQIIDKGGNYVLCVKANQSLSLQEIEAYFCPLFQKHILLDEQTELSHGRIETRRYESILNPLEIEANEVLTRWKGLRSIHKVVRKRRDKKSDKTSEEVAYYISSLTDVSSLKQAIRGHWAIENKLHHCLDVYFGHDASHKRTRNVAQIMDIIQKINLLIIERLKTNMKSSIPRIQKKLARMKPQQLITIQF”: the “soluble on expression in E. coli” value is “not soluble”. Turning to “MYIGGTGVEGYHHLFKEILDNAVDEALAGYATEILVRLNEDGSLTVEDNGRGIPVDLMPEEGKPAVEVIYTTLHSGGKFEQGAYKVSGGLHGVGASVVNALSEWTVVEVFREGKHHRIAFSRGEVTEPLRVVGEAPRGKTGTRVTFKPDPEIFGNLRFDPSKIRARLREVAYLVAGLKLVFQDRQHGKEEVFLDKGGVASFAKALAEGEDLLYEKPFLIRGTHGEVEVEVGFLHTQGYNAEILTYANMIPTRDGGTHLTAFKSAYSRALNQYAKKAGLNKEKGPQPTGDDLLEGLYAVVSVKLPNPQFEGQTKGKLLNPEAGTAVGQVVYERLLEILEENPRIAKAVYEKALRAAQAREAARKARELVRRQNPLESDELPGKLADCQTENPEEAELFIVEGDSAGGSAKQGRDRRFQAILPLRGKILNVEKAGLSKALKNAEVRAMVSAIGVGIGGDGEAHFDLEGLRYHKIIIMTDADVDGSHIRTLLLTFFYRYMRPLIERGHVYIAQPPLYRLQVGKKVEYLYSDEELQARLKELEGKHYEVQRFKGLGEMNPEQLWETTMNPEKRVLKRVELQDALEASELFEKLMGQEVAPRREFIEEHARYAELDI”, the “soluble on expression in E. coli” value is “soluble”. As for “MYIVIAGGGEMGGELARALEKTHDVVVIDRNPQARERFASLDVKVVVGGATDPDTLREAGVDRADLFVASTDSDEINLLASLLAKGLGAKEAFCFVGKGGYVEVLTDPRTAEILGTRIDRVLWPQRAMAREIVEVILVPWAVDTEVLAGGRLRFVEYRVKEGGEYVHRLLSGEKWPEGVLLAGVVREGTFLSFAHPEFPELILEPGDKLLFVATQKAFSELAAYFTEGPGVRRVMVIGGGNVGFMVAQGLLKRRVEVVIVERNAERCQWLSEELPGALVIQGDGTDIELLEAEGMAEADAVVAVTDHDEKNLLASLLAKQMGVRKVITRVSRSETRRLFEQVGIDLALTPRQAAVREVLDWIGPENVEHIATLDESIEVLEVLVSEGAAPKALRDLVRPDAVPVALERDHRIFLYEEGLGLLPGDRLYLVAAREVADEVLAPFFPE”, the “soluble on expression in E. coli” value is “soluble”. As to “MYKLDHLNHNTLDESSLELHETPKGYTNVALFGLDSRDGELSGGVRSDSIMIVSINNKTGDVKIISVYRDTLLKQQDGSYEKANAAYSFGGPQEAVAMLNRNLDLDITKYASVNFNSLADIIDILGGVEVELTSEEIFWLNGYTAETSQVVGRQTHTLDENSPGVHNLDGIQAVSYTRIRYTAGDDFKRAERQRIILQKMIQKLKTAGPVKWNKILDQVLPEISTNMTTPDIMKLGLNIFRYKIGETKGFPFDITTSENVIGLEGSYAVAIGHADNVRQLHEQLFGETGYQPSDEVQQISQDVAYLTGVLEHHHHHH”, the “soluble on expression in E. coli” value is recorded as “soluble”. With “MYKQILVPVDLNDQGFSDRAVELAVWQAKQANAEIHLLTVLPGIHMSMVATYFPKDAAAKMKQDVKQQLKAFASEHIDDEVIYKVHVAEGKAYATILDYAERLGADLIIMPSHKRSKINKVMLGSVASKVVEYSPINVMVVKPQG” the entry was “not soluble”; with “MYNFFRTVPRANRNEITFYPDYEEEGQKKKKTRSMFSWLGGDSSKKKNKEVLETVSEGLRKIYKQKLLPLEEFHKFHDFHSPALDDPDFDAKPMILLVGQYSTGKTTFIRYLLESDFPGIRIGPEPTTDRFIAVMHGDEEGSIPGNALVVDAKKQFRALSGFGNAFLNRFQCSTLPNQVLESVTIVDTPGILSGEKQRIDRGYDFTGVLEWFAERVDRIILLFDAHKLDISDEFKRCIEALAGNEDKIRIVLNKSDMVDHQQLMRVYGALMWSLGKVFKTPEVSRVYLGSFWDHPLHYDLNRRLFQDEQHDLFQDLQALPRNAALRKLNDLIKRARLAKVHAYIIAELRKQMPSMIGKDKKKKDLIQNLDKIYEQLQREHNISPGDFPDVNKMREKLQTQDFSKFNPLKPKLLEVVDGMLATDIARLMAQIPKEEAAAPAGSNGSADPTVRGGAFSQTTEAETPFGFGRGEGFDKGADEAEWVVSRERTTADSTFESLGPVNGYLSGRAAKEHMVKSKLPNSVLGKVWKLADIDKDGQLDADEFALANYLINLKLEGHEIPSELPKHLIPPSKRGEQDPVYPSLNDNDE”, “soluble”.
